To fix the notation:
B1: 2842-B01 HC3/LC1 (antibody)
heavy: MEVQLVESGGGLVQPGGSLRLSCAASGFSISSYDMSWVRQAPGKGLEWIGIIGSNGRTYYPDSVKGRFTISRDNSKNTVTLQMNSLRAEDTAVYYCARGLYDGTGNIWGQGTLVTVSSASTKGPSVFPLAPSSKSTSGGTAALGCLVKDYFPEPVTVSWNSGALTSGVHTFPAVLQSSGLSLSSVVTVPSSSLGTQTYICNVNHKPSNTKVDKKVEPKSCDKTHTCPPCPAPELLGGPSVFLFPPKPKDTLMISRTPEVTCVVVDVSHEDPEVKFNWYVDGVEVHNAKTKPREEQYNSTYRVVSVLTVLHQDWLNGKEYKCKVSNKALPAPIEKTISKAKGQPREPQVYTLPPSREEMTKNQVSLTCLVKGFYPSDIAVEWESNGQPENNYKTTPPVLDSDGSFLYSKLTVDKSRWQQGNVFSCSVMHEALHNHYTQKSLSLSPGK
light: MDLQMTQSPSSLSASVGDRVTITCRASQSVYGNNWLSWYQQKPGKAPKLLIYGASKLASGVPSRFSGSGSGTQFTLTISSLQPEDFATYYCQGTYYSGDWYFAFGQGTKVEIKRTVAAPSVFIFPPSDEQLKSGTASVVCLLNNFYPREAKVQWKVDNALQSGNSQESVTEQDSKDSTYSLSSTLTLSKADYEKHKVYACEVTHQGLSSPVTKSFNRGEC
modifications: conjugated to LP1 at Y180/F404
B2: 2842-B01 HC1/LC3 (antibody)
heavy: B1 heavy with E2Q, L5V, Q14K, V38I, P61A, D73N, N74T, S75N, K76E, T80Y
light: B1 light with L3I, R25Q, Q73D, Q106G
modifications: conjugated to LP1 at Y180/F404
B3: 2842-B01 HC1/LC1 (antibody, V domains shown)
VH: MQVQVVESGGGLVKPGGSLRLSCAASGFSISSYDMSWIRQAPGKGLEWIGIIGSNGRTYYADSVKGRFTISRNTNENTVYLQMNSLRAEDTAVYYCARGLYDGTGNIWGQGTLVTVSS
VL: MDLQMTQSPSSLSASVGDRVTITCRASQSVYGNNWLSWYQQKPGKAPKLLIYGASKLASGVPSRFSGSGSGTQFTLTISSLQPEDFATYYCQGTYYSGDWYFAFGQGTKVEIK
B4: 2842-B01 HC1/LC2 (antibody, V domains shown)
VH: B3 VH
VL: MELVMTQSPPTLSLSPGERVTLSCRASQSVYGNNWLSWYQQKPGQAPRLLIYGASKLATSIPARFSGSGSGTQFTLTISSLQPEDFAVYYCQGTYYSGDWYFAFGQGTKVEIK
B5: 2842-G04 HC2/LC2 (antibody)
heavy: MQVQVQESGPGLVKPPGTLSLTCAVSGFSLSYYGVSWVRQPPGKGLEWIGTIDSSGRTYYNPSLKSRVTISNDNAPNTVSLKLSSVTAADTAVYYCARDFYGWNSGALDIWGQGTLVTVSSASTKGPSVFPLAPSSKSTSGGTAALGCLVKDYFPEPVTVSWNSGALTSGVHTFPAVLQSSGLSLSSVVTVPSSSLGTQTYICNVNHKPSNTKVDKKVEPKSCDKTHTCPPCPAPELLGGPSVFLFPPKPKDTLMISRTPEVTCVVVDVSHEDPEVKFNWYVDGVEVHNAKTKPREEQYNSTYRVVSVLTVLHQDWLNGKEYKCKVSNKALPAPIEKTISKAKGQPREPQVYTLPPSREEMTKNQVSLTCLVKGFYPSDIAVEWESNGQPENNYKTTPPVLDSDGSFLYSKLTVDKSRWQQGNVFSCSVMHEALHNHYTQKSLSLSPGK
light: MDLQLTQSPSTLSASVGDRVTITCRASQSVYSNKYLSWYQQKPGKAPKLLIYKASTLASGVPSRFSGSGSGTEFTLTISSLQPDDFATYYCAAAYSDDSDTAFGQGTKVEIKRTVAAPSVFIFPPSDEQLKSGTASVVCLLNNFYPREAKVQWKVDNALQSGNSQESVTEQDSKDSTYSLSSTLTLSKADYEKHKVYACEVTHQGLSSPVTKSFNRGEC
modifications: conjugated to LP1 at Y180/F404

Substitutions are numbered along the chain they refer to.

Chain of cynomolgus TF (as listed by the source): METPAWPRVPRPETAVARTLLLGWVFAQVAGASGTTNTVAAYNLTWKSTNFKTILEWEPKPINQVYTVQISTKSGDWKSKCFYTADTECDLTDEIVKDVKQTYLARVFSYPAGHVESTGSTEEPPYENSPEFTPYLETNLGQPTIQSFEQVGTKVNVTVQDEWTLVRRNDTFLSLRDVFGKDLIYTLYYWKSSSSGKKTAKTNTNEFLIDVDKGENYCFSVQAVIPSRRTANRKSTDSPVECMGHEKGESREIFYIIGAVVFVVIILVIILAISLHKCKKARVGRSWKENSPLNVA

System in the first data set: not listed separately
As to the kind of experiment: DSF protein thermal shift assay (melting temperatures TM1/TM2). The class given is physicochemical. Particulars: Table 8, humanized rabbit antibodies; TM2 = Fab domain. On the procedure: (§1) A protein thermal shift assay was carried out by mixing the protein to be assayed with an environmentally sensitive dye (SYPRO Orange, Life Technologies #S-6650) and monitoring the fluorescence of the mixture in real time as it underwent controlled thermal denaturation. Protein solutions between 0.2-2 mg/mL were mixed at a 1:1 volumetric ratio with a solution of SYPRO Orange solution diluted 250-fold in PBS+10% sucrose. 10 μL aliquots of the protein-dye mixture were dispensed in quadruplicate in a 384-well microplate (Bio-Rad #MSP-3852). The plate was sealed with an optically clear sealing film (Bio-Rad #MSB-1001) and placed in a 384-well plate real-time thermocycler (Bio-Rad CFX384 Real Time System). The protein-dye mixture was heated from 25° C. to 95° C., at increments of 0.2° C. per cycle, allowing 3 seconds of equilibration at each temperature before taking a fluorescence measurement. At the end of the experiment, the transition melting temperatures (TM1 and TM2) were determined using the Bio-Rad CFX manager software. TM1 represents the melting temperature of the Fc domain. TM2 represents the melting temperature of the Fab domain.
as §1, with “solutions at 1” for “solutions between 0.2-2”, “a 1-1” for “a 1:1”, “sucrose. 5” for “sucrose. 10”
As to B1, the “DSF TM2 (° C.)” value is 86.5 °C.
Take B2: the “DSF TM2 (° C.)” value came to 87.6 °C.
On to B3, for which the “DSF TM2 (° C.)” value was 87.3 °C.
For the molecule B4, the “DSF TM2 (° C.)” value came to 82.4 °C.
Consider B5, for which the “DSF TM2 (° C.)” value amounted to 80.2 °C.

The target of a further data set is T1, human TF (Homo sapiens, UniProt P13726).
T1 construct: purchased Lake Pharma
T1 sequence (P13726 33-295): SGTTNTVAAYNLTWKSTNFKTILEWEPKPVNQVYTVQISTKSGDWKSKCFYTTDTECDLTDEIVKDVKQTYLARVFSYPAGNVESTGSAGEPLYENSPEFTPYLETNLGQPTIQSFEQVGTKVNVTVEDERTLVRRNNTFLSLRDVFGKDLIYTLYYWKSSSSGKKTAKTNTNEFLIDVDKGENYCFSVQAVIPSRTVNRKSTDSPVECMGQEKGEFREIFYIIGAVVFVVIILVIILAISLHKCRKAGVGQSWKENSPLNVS
Description: Biacore off-rate and kinetic binding, human TF. Conditions: Table 11, humanized rabbit antibodies; 100 nM antigen, 25° C. As for the experimental part: (§2) Anti-Fc polyclonal antibodies were immobilized onto a CM4 chip (Cytiva #BR100534) using amine coupling chemistry (Human Antibody Capture Kit, Cytiva #BR100839). The immobilization steps were carried out at a flow rate of 25 μL/min in 1×HBS-EP+buffer (Cytiva #BR100669). The sensor surfaces were activated for 7 min with a mixture of N-hydroxysuccinimide (NHS, 0.05 M) and 1-ethyl-3-(3-dimethylaminopropyl)-carbodiimide (EDC, 0.2 M). The anti-Fc polyclonal antibodies were injected over all 4 flow cells at a concentration of 25 μg/mL in 10 mM sodium acetate, pH 4.5, for 7 min. Ethanolamine (1 M, pH 8.5) was injected for 7 min to block any remaining activated groups. Approximately 6,000 response units (RU) of capture antibody was immobilized on each flow cell.
(§3) Off-rate and kinetic binding experiments were performed at 25° C. using 1×HBS-EP+buffer. Antibodies were injected over the anti-Fc surface at a concentration of 3 μg/mL for 12 seconds at a flow rate of 10 μL/min on flow cells 2, 3 and 4, followed by a buffer wash for 30 seconds at the same flow rate. Single point off-rate analysis was carried out using an antigen concentration of 100 nM. […] After capturing ligand (antibody) on the anti-Fc surface, the analyte (human TF, Lake Pharma; cynomolgus TF, Sino Bio #90885-C08H; mouse TF, R&D Systems #3178-PA) was bound for 180 seconds, followed by a 420 second dissociation phase at a flow rate of 50 μL/min. Between each ligand capture and analyte binding cycle, regeneration was carried out using 2 injections of 10 mM glycine pH 2.0 for 30 seconds at 30 μL/min, followed by a 30 second buffer wash step.
(§4) The data were fit with the Biacore T200 Evaluation software, using a 1:1 Langmuir binding model. KD (affinity, nM) was determined as a ratio of the kinetic rate constants calculated from the fits of the association and dissociation phases.
(§5) Anti-Fc polyclonal antibodies were immobilized onto a CM4 chip (Cytiva #BR100534) using amine coupling chemistry (Human Antibody Capture Kit, Cytiva #BR100839). The immobilization steps were carried out at a flow rate of 25 μL/min in 1×HBS-EP+buffer (Cytiva #BR100669). The sensor surfaces were activated for 7 min with a mixture of NHS (0.05 M) and EDC (0.2 M). The Anti-Fc antibodies were injected over all 4 flow cells at a concentration of 25 ug/ml in 10 mM sodium acetate, pH 4.5, for 7 min. Ethanolamine (1 M, pH 8.5) was injected for 7 min to block any remaining activated groups. Approximately 6,000 response units (RU) of capture antibody was immobilized on each flow cell. Off-rate and kinetic binding experiments were performed at 25° C. using 1×HBS-EP+buffer. Antibodies or ADCs were injected over the anti-Fc surface at a concentration of 3 μg/mL for 12 seconds at a flow rate of 10 μL/min on flow cells 2, 3 and 4, followed by a buffer wash for 30 seconds at the same flow rate. […] After capturing ligand (antibody) on the anti-Fc surface, the analyte (human TF, Lake Pharma; cynomolgus TF, Sino Bio #90885-C08H; mouse TF, R&D Systems #3178-PA) was bound for 180 seconds, followed by a 420 second dissociation phase at a flow rate of 50 μL/min. Between each ligand capture and analyte binding cycle, regeneration was carried out using 2 injections of 10 mM Glycine pH 2.0 for 30 seconds at 30 μL/min, followed by a 30 second buffer wash step. The data was fit with the Biacore T200 Evaluation software, using a 1-1 Langmuir binding model. KD (affinity, nM) was determined as a ratio of the kinetic rate constants calculated from the fits of the association and dissociation phases.
Regarding B1, the “Biacore human TF single point off-rate kinetics kd” value worked out at 0.000416 s⁻¹.
The same measure, in the same setting: as for B2, the figure is 0.00054 s⁻¹; as for B3, 0.000727 s⁻¹; as for B4, 0.000691 s⁻¹.
Take B5: the “Biacore human TF single point off-rate kinetics kd” value came out at 0.000736 s⁻¹.

The next data set has as its system cynomolgus TF. Description: Biacore off-rate and kinetic binding, cynomolgus TF. Conditions: Table 11, humanized rabbit antibodies; 100 nM antigen, 25° C. On the procedure: as §2, §3, §4, §5
As for B1, the “Biacore cynomolgus TF single point off-rate kinetics kd” value is 0.00187 s⁻¹.
B2: the “Biacore cynomolgus TF single point off-rate kinetics kd” value stood at 0.00117 s⁻¹.
In the case of B3, the “Biacore cynomolgus TF single point off-rate kinetics kd” value turned out to be 0.00352 s⁻¹.
Regarding B4, the “Biacore cynomolgus TF single point off-rate kinetics kd” value was 0.00142 s⁻¹.
On the same count and under the same terms, then B5, with 0.0017 s⁻¹.

These data come from patent US12540197B2, “Anti-tissue factor antibodies and antibody conjugates, compositions comprising anti-tissue factor antibodies or antibody conjugates, and methods of making and using anti-tissue factor antibodies and antibody conjugates” (SUTRO BIOPHARMA, INC., priority 2023, dated 2026).
